Measurements from the supplement of paper PMC9876800.

System: peptide library, one residue held at a place counted from the S/T acceptor
Assay: relative phosphorylation of the sub-library (ratio to the mean residue at this position); higher = residue favoured
Details: human
Outline: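 In 384-well plates, purified recombinant kinases (human or orthologue constructs) were incubated for 90 min under kinase-specific conditions with 50 μM biotinylated degenerate peptide sub-libraries and 50 μM ATP spiked with γ-32P-ATP. Each sub-library fixed a single residue at one position around a central Ser/Thr. Relative sub-library phosphorylation, measured by phosphorimaging and densitometry of streptavidin membrane spots, is given as a ratio to the mean residue at that position.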

Sequence of CHEK1, construct: Full length (O14757 whole entry, looked up): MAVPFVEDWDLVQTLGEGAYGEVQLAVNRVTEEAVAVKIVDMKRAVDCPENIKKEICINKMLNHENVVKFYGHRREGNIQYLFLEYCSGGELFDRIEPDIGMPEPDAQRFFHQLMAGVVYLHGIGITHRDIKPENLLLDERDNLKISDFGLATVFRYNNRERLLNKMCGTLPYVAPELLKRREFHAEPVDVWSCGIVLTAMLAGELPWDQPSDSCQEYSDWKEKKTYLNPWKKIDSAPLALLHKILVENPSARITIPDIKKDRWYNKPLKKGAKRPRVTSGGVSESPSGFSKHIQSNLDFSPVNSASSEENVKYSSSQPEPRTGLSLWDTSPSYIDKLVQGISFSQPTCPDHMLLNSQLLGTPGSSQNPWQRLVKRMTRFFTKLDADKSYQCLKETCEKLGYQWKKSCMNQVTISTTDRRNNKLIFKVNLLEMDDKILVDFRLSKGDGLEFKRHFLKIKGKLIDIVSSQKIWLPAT
Sequence of CDK16, construct: aa107-end (Q00536 107-496, looked up): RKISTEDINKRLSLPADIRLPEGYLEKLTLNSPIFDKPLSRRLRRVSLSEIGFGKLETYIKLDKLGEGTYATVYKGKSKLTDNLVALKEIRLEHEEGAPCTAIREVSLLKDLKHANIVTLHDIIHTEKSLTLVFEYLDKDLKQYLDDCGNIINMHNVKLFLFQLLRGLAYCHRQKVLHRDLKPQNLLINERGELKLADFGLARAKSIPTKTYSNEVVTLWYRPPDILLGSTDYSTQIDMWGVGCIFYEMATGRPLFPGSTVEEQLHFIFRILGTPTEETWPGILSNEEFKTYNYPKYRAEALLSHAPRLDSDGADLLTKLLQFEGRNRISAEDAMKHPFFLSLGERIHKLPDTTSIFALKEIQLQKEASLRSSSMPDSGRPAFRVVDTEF
Sequence of CDK9, construct: Full length (P50750 whole entry, looked up): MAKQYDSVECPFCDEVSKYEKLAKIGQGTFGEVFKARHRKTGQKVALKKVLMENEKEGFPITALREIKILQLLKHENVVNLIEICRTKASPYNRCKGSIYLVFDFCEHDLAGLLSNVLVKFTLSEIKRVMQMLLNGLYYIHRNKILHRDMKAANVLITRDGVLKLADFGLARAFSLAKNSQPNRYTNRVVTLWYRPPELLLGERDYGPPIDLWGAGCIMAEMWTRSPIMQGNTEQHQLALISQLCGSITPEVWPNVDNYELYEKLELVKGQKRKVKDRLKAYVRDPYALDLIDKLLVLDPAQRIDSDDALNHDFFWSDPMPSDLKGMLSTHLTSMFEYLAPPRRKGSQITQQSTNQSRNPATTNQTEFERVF
Sequence of CSNK1G1, construct: aa21-end (Q9HCP0 21-422, looked up): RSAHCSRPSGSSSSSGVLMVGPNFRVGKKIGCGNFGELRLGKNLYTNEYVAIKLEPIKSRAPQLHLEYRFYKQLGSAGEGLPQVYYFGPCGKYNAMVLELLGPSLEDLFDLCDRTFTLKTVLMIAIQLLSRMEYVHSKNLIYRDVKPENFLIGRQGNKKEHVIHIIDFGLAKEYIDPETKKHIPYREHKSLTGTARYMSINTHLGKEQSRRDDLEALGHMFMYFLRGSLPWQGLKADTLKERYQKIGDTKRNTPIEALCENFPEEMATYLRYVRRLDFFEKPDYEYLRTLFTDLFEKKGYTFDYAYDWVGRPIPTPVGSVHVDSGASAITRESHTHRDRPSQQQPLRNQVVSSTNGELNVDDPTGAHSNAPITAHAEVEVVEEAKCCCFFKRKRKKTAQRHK

CDK9, construct: Full length (from UniProt P50750)
relative phosphorylation
Details | at +1 | at +2 | at +3 | at +4 | at -1 | at -2 | at -3 | at -4 | at -5
A fixed | 0.39 | 0.956 | 0.702 | 0.931 | 1.2 | 1.52 | 1.17 | 1.19 | 1.13
D fixed | 0.167 | 0.493 | 0.429 | 0.79 | 0.328 | 0.322 | 0.339 | 0.607 | 0.572
E fixed | 0.212 | 0.478 | 0.409 | 0.913 | 0.34 | 0.392 | 0.382 | 0.661 | 0.514
F fixed | 0.398 | 0.953 | 0.593 | 1.01 | 0.974 | 0.919 | 1.01 | 1.13 | 1.25
G fixed | 0.943 | 1.35 | 0.85 | 1.13 | 1.34 | 1.12 | 1.82 | 1.14 | 1.01
H fixed | 0.286 | 1.57 | 3 | 1.45 | 1.02 | 0.973 | 1.12 | 1.13 | 1.27
I fixed | 0.306 | 0.708 | 0.547 | 0.871 | 0.353 | 0.956 | 0.902 | 0.868 | 0.858
K fixed | 0.328 | 1.24 | 0.828 | 0.752 | 1.51 | 0.91 | 0.939 | 1.1 | 1.09
L fixed | 0.404 | 0.736 | 0.453 | 0.791 | 0.98 | 0.95 | 0.868 | 0.914 | 0.82
M fixed | 0.347 | 0.769 | 0.478 | 0.893 | 1.75 | 1.53 | 0.963 | 0.969 | 0.853
N fixed | 0.217 | 1.18 | 0.79 | 0.983 | 0.82 | 0.805 | 0.896 | 0.895 | 0.876
P fixed | 11.4 | 0.652 | 1.38 | 0.984 | 1.14 | 1.32 | 1.15 | 1.06 | 1.01
Q fixed | 0.285 | 0.928 | 0.987 | 0.928 | 1.08 | 0.796 | 0.813 | 0.804 | 0.833
R fixed | 0.327 | 2.31 | 2.45 | 0.973 | 1.78 | 1.23 | 1.68 | 1.18 | 1.23
V fixed | 0.388 | 0.734 | 0.545 | 0.84 | 0.559 | 0.821 | 0.939 | 0.855 | 0.892
W fixed | 0.331 | 0.95 | 1.28 | 1.57 | 0.836 | 1.32 | 0.958 | 1.31 | 1.46
Y fixed | 0.315 | 0.999 | 1.28 | 1.19 | 0.992 | 1.12 | 1.05 | 1.19 | 1.33
pThr fixed | 0.374 | 0.622 | 0.475 | 0.979 | 0.284 | 0.487 | 0.615 | 0.723 | 0.719
pTyr fixed | 0.379 | 0.536 | 1.18 | 1.2 | 0.558 | 0.526 | 0.607 | 0.838 | 0.714

CDK16, construct: aa107-end (from UniProt Q00536)
relative phosphorylation
Details | at +1 | at +2 | at +3 | at +4 | at -1 | at -2 | at -3 | at -4 | at -5
A fixed | 0.223 | 0.675 | 0.758 | 0.72 | 1.18 | 1.28 | 1.24 | 0.912 | 1.03
D fixed | 0.152 | 0.587 | 0.335 | 0.457 | 0.539 | 0.439 | 0.692 | 0.863 | 0.745
E fixed | 0.15 | 0.385 | 0.316 | 0.305 | 0.491 | 0.464 | 0.839 | 0.817 | 0.699
F fixed | 0.155 | 0.368 | 1.03 | 0.593 | 0.499 | 0.512 | 0.478 | 0.455 | 0.542
G fixed | 0.947 | 0.572 | 0.702 | 1.38 | 2.12 | 0.887 | 2.02 | 0.951 | 0.854
H fixed | 0.218 | 1.25 | 0.82 | 1.16 | 0.92 | 0.797 | 1.27 | 1.08 | 1.68
I fixed | 0.147 | 0.455 | 0.842 | 0.588 | 0.26 | 0.834 | 0.433 | 0.852 | 0.625
K fixed | 0.253 | 3.26 | 0.872 | 2.54 | 1.37 | 0.617 | 0.915 | 2.31 | 2.51
L fixed | 0.177 | 1.05 | 2.59 | 0.679 | 0.582 | 1.18 | 0.93 | 1.15 | 1.16
M fixed | 0.168 | 0.663 | 1.97 | 0.757 | 0.722 | 1.12 | 0.666 | 0.755 | 0.722
N fixed | 0.225 | 1.17 | 0.964 | 1.09 | 1.16 | 1.08 | 1.19 | 1.78 | 1.42
P fixed | 13.1 | 0.696 | 1.45 | 0.842 | 1.77 | 3.72 | 1.93 | 1.11 | 0.908
Q fixed | 0.246 | 1.26 | 0.973 | 1.06 | 1.28 | 0.988 | 1.06 | 1.01 | 0.95
R fixed | 0.23 | 2.63 | 0.996 | 2.89 | 1.67 | 0.715 | 0.973 | 1.02 | 1.08
V fixed | 0.177 | 0.676 | 0.937 | 0.66 | 0.399 | 0.941 | 0.643 | 0.598 | 0.657
W fixed | 0.221 | 0.702 | 0.877 | 0.687 | 0.991 | 0.83 | 0.85 | 0.675 | 0.902
Y fixed | 0.17 | 0.608 | 0.564 | 0.587 | 1.04 | 0.588 | 0.871 | 0.653 | 0.509
pThr fixed | 0.435 | 0.648 | 0.998 | 0.332 | 0.397 | 0.764 | 0.87 | 0.767 | 0.657
pTyr fixed | 0.801 | 0.513 | 1.11 | 0.42 | 0.49 | 0.698 | 0.925 | 0.584 | 0.723

CHEK1, construct: Full length (from UniProt O14757)
relative phosphorylation
Details | at +1 | at +2 | at +3 | at +4 | at -1 | at -2 | at -3 | at -4 | at -5
A fixed | 0.806 | 1.04 | 0.824 | 0.997 | 0.779 | 1.18 | 0.579 | 1.17 | 0.706
D fixed | 1.03 | 1.19 | 1.4 | 1.19 | 1.06 | 0.387 | 0.353 | 0.714 | 0.379
E fixed | 0.981 | 0.932 | 1.01 | 0.882 | 0.709 | 0.977 | 0.853 | 1.15 | 0.261
F fixed | 1.43 | 0.719 | 0.731 | 0.754 | 0.637 | 1.16 | 0.39 | 0.817 | 2.06
G fixed | 1.21 | 0.978 | 1.16 | 1.18 | 0.915 | 0.619 | 0.685 | 0.811 | 0.331
H fixed | 1.21 | 1.38 | 1.2 | 1.17 | 1.27 | 2.01 | 2.02 | 1.14 | 0.51
I fixed | 0.801 | 0.808 | 0.832 | 0.968 | 0.396 | 0.56 | 0.253 | 0.952 | 2.21
K fixed | 0.614 | 0.531 | 0.588 | 0.687 | 1.54 | 0.887 | 2.36 | 1.45 | 0.405
L fixed | 0.98 | 0.756 | 0.908 | 1.18 | 0.805 | 0.738 | 0.281 | 0.919 | 2.9
M fixed | 1.57 | 0.935 | 0.985 | 1.06 | 0.901 | 1.14 | 0.625 | 1.26 | 1.98
N fixed | 1.65 | 1.82 | 1.47 | 1.23 | 1.68 | 1.42 | 0.992 | 0.9 | 0.361
P fixed | 0.429 | 0.973 | 1.2 | 1.57 | 1.84 | 0.547 | 1.37 | 0.458 | 0.49
Q fixed | 1.19 | 1.36 | 1.15 | 1.12 | 1.36 | 1.17 | 0.995 | 1.07 | 0.422
R fixed | 0.599 | 0.692 | 0.57 | 0.547 | 0.98 | 0.895 | 3.45 | 1.41 | 0.759
V fixed | 0.686 | 0.96 | 0.802 | 0.713 | 0.48 | 0.701 | 0.323 | 1.05 | 1.25
W fixed | 0.94 | 1.01 | 1.18 | 0.874 | 0.682 | 1.2 | 0.857 | 0.829 | 1.32
Y fixed | 0.869 | 0.921 | 0.995 | 0.886 | 0.963 | 1.39 | 0.617 | 0.902 | 0.661
pThr fixed | 0.831 | 0.822 | 0.733 | 0.892 | 0.188 | 0.139 | 0.198 | 0.311 | 0.164
pTyr fixed | 0.821 | 1.17 | 0.94 | 0.812 | 0.495 | 0.382 | 0.193 | 0.343 | 0.443

CSNK1G1, construct: aa21-end (from UniProt Q9HCP0)
relative phosphorylation
Details | at +1 | at +2 | at +3 | at +4 | at -1 | at -2 | at -3 | at -4 | at -5
A fixed | 0.872 | 1.05 | 1.29 | 1.13 | 1.38 | 2.1 | 0.918 | 1.23 | 1.22
D fixed | 0.317 | 0.551 | 0.757 | 0.828 | 0.406 | 1 | 5.14 | 1.25 | 1.11
E fixed | 0.4 | 0.293 | 0.823 | 0.662 | 0.47 | 1.13 | 2.32 | 1.12 | 0.901
F fixed | 0.853 | 1.21 | 1.31 | 1.45 | 0.713 | 0.511 | 0.471 | 0.984 | 0.913
G fixed | 0.611 | 1.02 | 1.62 | 1.19 | 1.53 | 1.19 | 0.734 | 1.07 | 1.04
H fixed | 0.731 | 1.71 | 1.03 | 0.976 | 0.983 | 0.714 | 0.633 | 0.918 | 1.1
I fixed | 2.43 | 1.06 | 0.755 | 0.921 | 0.927 | 1.11 | 0.42 | 0.799 | 0.734
K fixed | 0.461 | 1.03 | 0.731 | 0.812 | 1.27 | 0.674 | 0.644 | 0.981 | 1.44
L fixed | 2.32 | 0.922 | 0.962 | 0.894 | 1.06 | 0.949 | 0.482 | 0.81 | 0.892
M fixed | 1.77 | 0.951 | 0.957 | 0.943 | 1.01 | 0.63 | 0.389 | 0.796 | 0.801
N fixed | 0.619 | 0.976 | 0.842 | 0.786 | 0.597 | 1.53 | 0.758 | 0.877 | 1.02
P fixed | 0.326 | 0.369 | 0.774 | 1.15 | 1.36 | 1.08 | 0.646 | 1 | 0.87
Q fixed | 0.685 | 0.798 | 0.732 | 0.839 | 0.886 | 1.08 | 0.546 | 0.76 | 0.798
R fixed | 0.771 | 1.01 | 0.884 | 0.713 | 1.28 | 0.919 | 1.07 | 0.814 | 1.05
V fixed | 2.03 | 1.01 | 0.76 | 0.947 | 0.978 | 1.26 | 0.582 | 0.763 | 0.875
W fixed | 0.861 | 1.25 | 1.4 | 1.35 | 1.25 | 0.608 | 0.636 | 1.72 | 1.24
Y fixed | 0.935 | 1.79 | 1.37 | 1.41 | 0.898 | 0.511 | 0.604 | 1.11 | 1
pThr fixed | 0.575 | 0.524 | 0.83 | 1.73 | 0.534 | 3.07 | 34 | 4.36 | 1.61
pTyr fixed | 0.734 | 3.17 | 4.7 | 1.83 | 0.64 | 2.15 | 5.42 | 3.67 | 2.21
